# Assay results published in patent publication US20230151095A1 (published 2023).
# Biological target: CD16 (UniProt P08637 17-208)
# Sequence (P08637 17-208): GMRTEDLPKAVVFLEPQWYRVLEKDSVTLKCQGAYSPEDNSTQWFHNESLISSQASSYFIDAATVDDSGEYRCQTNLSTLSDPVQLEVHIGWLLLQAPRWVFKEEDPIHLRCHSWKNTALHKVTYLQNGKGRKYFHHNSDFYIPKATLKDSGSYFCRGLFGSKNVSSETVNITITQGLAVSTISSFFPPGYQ
row,Binder,Kd [nM]
1,XENP41034 (antibody) chain 1: EVQLLESGGGLVQPGGSLRLSCAVSGFSLSSYGVIWVRQAPGKGLEYVSWVSSGGSTNYASSVKGRFTISRDTSKNTVYLQMNSLRAEDTAVYFCARGATNSGTDIWGPGTLVTVSSASTKGPSVFPLAPSSKSTSGGTAALGCLVKDYFPEPVTVSWNSGALTSGVHTFPAVLQSSGLYSLSSVVTVPSSSLGTQTYICNVNHKPSDTKVDKKVEPKSCDKTHTCPPCPAPELLGGPSVFLFPPKPKDTLMISRTPEVTCVVVDVSHEDPEVKFNWYVDGVEVHNAKTKPREEEYNSTYRVVSVLTVLHQDWLNGKEYKCKVSNKALPAPEEKTISKAKGQPREPQVYTLPPSREEMTKNQVSLTCDVSGFYPSDIAVEWESDGQPENNYKTTPPVLDSDGSFFLYSKLTVDKSRWEQGDVFSCSVMHEALHNHYTQKSLSLSPGK chain 2: EVQLLESGGGLVQPGGSLRLSCAVSGFSLSSYGVIWVRQAPGKGLEYVSWVSSGGSTNYASSVKGRFTISRDTSKNTVYLQMNSLRAEDTAVYFCARGATNSGTDIWGPGTLVTVSSGKPGSGKPGSGKPGSGKPGSDIVMTQSPSSLSASVGDRVTITCRASQSINSWLSWYQQKPGKPPKLLIYGASNLASGVPSRFKGSGSGTDFTLTISSLQPEDFATYYCQNNYGIIAAGATFGGGTKVEIKEPKSSDKTHTCPPCPAPELLGGPDVFLFPPKPKDTLMISRTPEVTCVVVDVSHEDPEVKFNWYVDGVEVHNAKTKPREEQYNSTYRVVSVLTVLHQDWLNGKEYKCKVSNKALPAPEEKTISKAKGQPREPQVYTLPPSREQMTKNQVKLTCLVKGFYPSDIAVEWESNGQPENNYKTTPPVLDSDGSFFLYSKLTVDKSRWQQGNVFSCSVMHEALHNHYTQKSLSLSPGK chain 3: DIVMTQSPSSLSASVGDRVTITCRASQSINSWLSWYQQKPGKPPKLLIYGASNLASGVPSRFKGSGSGTDFTLTISSLQPEDFATYYCQNNYGIIAAGATFGGGTKVEIKRTVAAPSVFIFPPSDEQLKSGTASVVCLLNNFYPREAKVQWKVDNALQSGNSQESVTEQDSKDSTYSLSSTLTLSKADYEKHKVYACEVTHQGLSSPVTKSFNRGEC,64.6
2,XENP41032 (antibody) chain 1: EVQLLESGGGLVQPGGSLRLSCAVSGFSLSSYGVIWVRQAPGKGLEYVSWVSSGGSTNYASSVKGRFTISRDTSKNTVYLQMNSLRAEDTAVYFCARGATNSGTDIWGPGTLVTVSSASTKGPSVFPLAPSSKSTSGGTAALGCLVKDYFPEPVTVSWNSGALTSGVHTFPAVLQSSGLYSLSSVVTVPSSSLGTQTYICNVNHKPSDTKVDKKVEPKSCDKTHTCPPCPAPELLGGPDVFLFPPKPKDTLMISRTPEVTCVVVDVSHEDPEVKFNWYVDGVEVHNAKTKPREEEYNSTYRVVSVLTVLHQDWLNGKEYKCKVSNKALPAPEEKTISKAKGQPREPQVYTLPPSREEMTKNQVSLTCDVSGFYPSDIAVEWESDGQPENNYKTTPPVLDSDGSFFLYSKLTVDKSRWEQGDVFSCSVMHEALHNHYTQKSLSLSPGK chain 2: EVQLLESGGGLVQPGGSLRLSCAVSGFSLSSYGVIWVRQAPGKGLEYVSWVSSGGSTNYASSVKGRFTISRDTSKNTVYLQMNSLRAEDTAVYFCARGATNSGTDIWGPGTLVTVSSGKPGSGKPGSGKPGSGKPGSDIVMTQSPSSLSASVGDRVTITCRASQSINSWLSWYQQKPGKPPKLLIYGASNLASGVPSRFKGSGSGTDFTLTISSLQPEDFATYYCQNNYGIIAAGATFGGGTKVEIKEPKSSDKTHTCPPCPAPELLGGPSVFLFPPKPKDTLMISRTPEVTCVVVDVSHEDPEVKFNWYVDGVEVHNAKTKPREEQYNSTYRVVSVLTVLHQDWLNGKEYKCKVSNKALPAPEEKTISKAKGQPREPQVYTLPPSREQMTKNQVKLTCLVKGFYPSDIAVEWESNGQPENNYKTTPPVLDSDGSFFLYSKLTVDKSRWQQGNVFSCSVMHEALHNHYTQKSLSLSPGK chain 3: DIVMTQSPSSLSASVGDRVTITCRASQSINSWLSWYQQKPGKPPKLLIYGASNLASGVPSRFKGSGSGTDFTLTISSLQPEDFATYYCQNNYGIIAAGATFGGGTKVEIKRTVAAPSVFIFPPSDEQLKSGTASVVCLLNNFYPREAKVQWKVDNALQSGNSQESVTEQDSKDSTYSLSSTLTLSKADYEKHKVYACEVTHQGLSSPVTKSFNRGEC,60.2
3,XENP41021 (antibody) chain 1: EVQLLESGGGLVQPGGSLRLSCAVSGFSLSSYGVIWVRQAPGKGLEYVSWVSSGGSTNYASSVKGRFTISRDTSKNTVYLQMNSLRAEDTAVYFCARGATNSGTDIWGPGTLVTVSSASTKGPSVFPLAPSSKSTSGGTAALGCLVKDYFPEPVTVSWNSGALTSGVHTFPAVLQSSGLYSLSSVVTVPSSSLGTQTYICNVNHKPSDTKVDKKVEPKSCDKTHTCPPCPAPELLGGPSVFLFPPKPKDTLMISRTPEVTCVVVDVSHEDPEVKFNWYVDGVEVHNAKTKPREEEYNSTYRVVSVLTVLHQDWLNGKEYKCKVSNKALPAPIEKTISKAKGQPREPQVYTLPPSREEMTKNQVSLTCDVSGFYPSDIAVEWESDGQPENNYKTTPPVLDSDGSFFLYSKLTVDKSRWEQGDVFSCSVMHEALHNHYTQKSLSLSPGK chain 2: not shown chain 3: DIVMTQSPSSLSASVGDRVTITCRASQSINSWLSWYQQKPGKPPKLLIYGASNLASGVPSRFKGSGSGTDFTLTISSLQPEDFATYYCQNNYGIIAAGATFGGGTKVEIKRTVAAPSVFIFPPSDEQLKSGTASVVCLLNNFYPREAKVQWKVDNALQSGNSQESVTEQDSKDSTYSLSSTLTLSKADYEKHKVYACEVTHQGLSSPVTKSFNRGEC,417
4,XENP41031 (antibody) chain 1: EVQLLESGGGLVQPGGSLRLSCAVSGFSLSSYGVIWVRQAPGKGLEYVSWVSSGGSTNYASSVKGRFTISRDTSKNTVYLQMNSLRAEDTAVYFCARGATNSGTDIWGPGTLVTVSSASTKGPSVFPLAPSSKSTSGGTAALGCLVKDYFPEPVTVSWNSGALTSGVHTFPAVLQSSGLYSLSSVVTVPSSSLGTQTYICNVNHKPSDTKVDKKVEPKSCDKTHTCPPCPAPELLGGPDVFLFPPKPKDTLMISRTPEVTCVVVDVSHEDPEVKFNWYVDGVEVHNAKTKPREEEYNSTYRVVSVLTVLHQDWLNGKEYKCKVSNKALPAPEEKTISKAKGQPREPQVYTLPPSREEMTKNQVSLTCDVSGFYPSDIAVEWESDGQPENNYKTTPPVLDSDGSFFLYSKLTVDKSRWEQGDVFSCSVMHEALHNHYTQKSLSLSPGK chain 2: EVQLLESGGGLVQPGGSLRLSCAVSGFSLSSYGVIWVRQAPGKGLEYVSWVSSGGSTNYASSVKGRFTISRDTSKNTVYLQMNSLRAEDTAVYFCARGATNSGTDIWGPGTLVTVSSGKPGSGKPGSGKPGSGKPGSDIVMTQSPSSLSASVGDRVTITCRASQSINSWLSWYQQKPGKPPKLLIYGASNLASGVPSRFKGSGSGTDFTLTISSLQPEDFATYYCQNNYGIIAAGATFGGGTKVEIKEPKSSDKTHTCPPCPAPELLGGPDVFLFPPKPKDTLMISRTPEVTCVVVDVSHEDPEVKFNWYVDGVEVHNAKTKPREEQYNSTYRVVSVLTVLHQDWLNGKEYKCKVSNKALPAPIEKTISKAKGQPREPQVYTLPPSREQMTKNQVKLTCLVKGFYPSDIAVEWESNGQPENNYKTTPPVLDSDGSFFLYSKLTVDKSRWQQGNVFSCSVMHEALHNHYTQKSLSLSPGK chain 3: DIVMTQSPSSLSASVGDRVTITCRASQSINSWLSWYQQKPGKPPKLLIYGASNLASGVPSRFKGSGSGTDFTLTISSLQPEDFATYYCQNNYGIIAAGATFGGGTKVEIKRTVAAPSVFIFPPSDEQLKSGTASVVCLLNNFYPREAKVQWKVDNALQSGNSQESVTEQDSKDSTYSLSSTLTLSKADYEKHKVYACEVTHQGLSSPVTKSFNRGEC,55.2

# The remaining binders from weak to strong by Kd, led by results:
row,Kd [nM],Binder
1,219,XENP41026 (antibody) chain 1: EVQLLESGGGLVQPGGSLRLSCAVSGFSLSSYGVIWVRQAPGKGLEYVSWVSSGGSTNYASSVKGRFTISRDTSKNTVYLQMNSLRAEDTAVYFCARGATNSGTDIWGPGTLVTVSSASTKGPSVFPLAPSSKSTSGGTAALGCLVKDYFPEPVTVSWNSGALTSGVHTFPAVLQSSGLYSLSSVVTVPSSSLGTQTYICNVNHKPSDTKVDKKVEPKSCDKTHTCPPCPAPELLGGPSVFLFPPKPKDTLMISRTPEVTCVVVDVSHEDPEVKFNWYVDGVEVHNAKTKPREEEYNSTYRVVSVLTVLHQDWLNGKEYKCKVSNKALPAPIEKTISKAKGQPREPQVYTLPPSREEMTKNQVSLTCDVSGFYPSDIAVEWESDGQPENNYKTTPPVLDSDGSFFLYSKLTVDKSRWEQGDVFSCSVMHEALHNHYTQKSLSLSPGK chain 2: EVQLLESGGGLVQPGGSLRLSCAVSGFSLSSYGVIWVRQAPGKGLEYVSWVSSGGSTNYASSVKGRFTISRDTSKNTVYLQMNSLRAEDTAVYFCARGATNSGTDIWGPGTLVTVSSGKPGSGKPGSGKPGSGKPGSDIVMTQSPSSLSASVGDRVTITCRASQSINSWLSWYQQKPGKPPKLLIYGASNLASGVPSRFKGSGSGTDFTLTISSLQPEDFATYYCQNNYGIIAAGATFGGGTKVEIKEPKSSDKTHTCPPCPAPELLGGPDVFLFPPKPKDTLMISRTPEVTCVVVDVSHEDPEVKFNWYVDGVEVHNAKTKPREEQYNSTYRVVSVLTVLHQDWLNGKEYKCKVSNKALPAPIEKTISKAKGQPREPQVYTLPPSREQMTKNQVKLTCLVKGFYPSDIAVEWESNGQPENNYKTTPPVLDSDGSFFLYSKLTVDKSRWQQGNVFSCSVMHEALHNHYTQKSLSLSPGK chain 3: DIVMTQSPSSLSASVGDRVTITCRASQSINSWLSWYQQKPGKPPKLLIYGASNLASGVPSRFKGSGSGTDFTLTISSLQPEDFATYYCQNNYGIIAAGATFGGGTKVEIKRTVAAPSVFIFPPSDEQLKSGTASVVCLLNNFYPREAKVQWKVDNALQSGNSQESVTEQDSKDSTYSLSSTLTLSKADYEKHKVYACEVTHQGLSSPVTKSFNRGEC
2,59.9,XENP41033 (antibody) chain 1: EVQLLESGGGLVQPGGSLRLSCAVSGFSLSSYGVIWVRQAPGKGLEYVSWVSSGGSTNYASSVKGRFTISRDTSKNTVYLQMNSLRAEDTAVYFCARGATNSGTDIWGPGTLVTVSSASTKGPSVFPLAPSSKSTSGGTAALGCLVKDYFPEPVTVSWNSGALTSGVHTFPAVLQSSGLYSLSSVVTVPSSSLGTQTYICNVNHKPSDTKVDKKVEPKSCDKTHTCPPCPAPELLGGPDVFLFPPKPKDTLMISRTPEVTCVVVDVSHEDPEVKFNWYVDGVEVHNAKTKPREEEYNSTYRVVSVLTVLHQDWLNGKEYKCKVSNKALPAPIEKTISKAKGQPREPQVYTLPPSREEMTKNQVSLTCDVSGFYPSDIAVEWESDGQPENNYKTTPPVLDSDGSFFLYSKLTVDKSRWEQGDVFSCSVMHEALHNHYTQKSLSLSPGK chain 2: EVQLLESGGGLVQPGGSLRLSCAVSGFSLSSYGVIWVRQAPGKGLEYVSWVSSGGSTNYASSVKGRFTISRDTSKNTVYLQMNSLRAEDTAVYFCARGATNSGTDIWGPGTLVTVSSGKPGSGKPGSGKPGSGKPGSDIVMTQSPSSLSASVGDRVTITCRASQSINSWLSWYQQKPGKPPKLLIYGASNLASGVPSRFKGSGSGTDFTLTISSLQPEDFATYYCQNNYGIIAAGATFGGGTKVEIKEPKSSDKTHTCPPCPAPELLGGPDVFLFPPKPKDTLMISRTPEVTCVVVDVSHEDPEVKFNWYVDGVEVHNAKTKPREEQYNSTYRVVSVLTVLHQDWLNGKEYKCKVSNKALPAPEEKTISKAKGQPREPQVYTLPPSREQMTKNQVKLTCLVKGFYPSDIAVEWESNGQPENNYKTTPPVLDSDGSFFLYSKLTVDKSRWQQGNVFSCSVMHEALHNHYTQKSLSLSPGK chain 3: DIVMTQSPSSLSASVGDRVTITCRASQSINSWLSWYQQKPGKPPKLLIYGASNLASGVPSRFKGSGSGTDFTLTISSLQPEDFATYYCQNNYGIIAAGATFGGGTKVEIKRTVAAPSVFIFPPSDEQLKSGTASVVCLLNNFYPREAKVQWKVDNALQSGNSQESVTEQDSKDSTYSLSSTLTLSKADYEKHKVYACEVTHQGLSSPVTKSFNRGEC
